# Results published in the RNAGym collection of RNA variant scans (doi:10.1093/nar/gkz1192).
# B1: CPEB3 Ribozyme (parent)
# chain: UAACAGGGGGCCACAGCAGAAGCGUUCACGUCGCAGCCCCUGUCAGAUUCUGGUGAAUCUGCGAAUUCUGCUGUAUAUCUC
# Variants of: B1
# Assay: self-cleavage, relative activity (ratio to wild type); higher = more cleavage; in vitro, sequencing
# In short: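 For each CPEB3 ribozyme variant, relative activity is its cleaved/total read fraction divided by the unmutated ribozyme's. Barcoded error-prone PCR libraries were transcribed by T7 RNA polymerase (5 hours, 37°C) and held in DNase I for 15 min before an EDTA stop, with cleavage occurring throughout. Template-switching reverse transcription and Illumina sequencing were used to read the RNAs. A 5-read minimum applied, and results are the mean of three batches.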
row,Variant,self-cleavage
1,U41G U76A,0.14
2,U41G U76C,0.27
3,G42U G53A,0.31
4,G42A U49A,0.21
5,G42U U67C,0.08
6,G42A A65G,0.42
7,G42A A65U,0.3
8,G42A A65C,0.24
9,U43A C62U,0.39
10,U41G C71G,0.33
11,U41C G42A,0.23
12,U41C G42C,0.23
13,G42A,0.34
14,G42C,0.51
15,G42U,0.31
16,U41C A75C,1.15
17,U41C A75U,1.18
18,U41C A75G,1.09
19,U41G U60C,0.18
20,U41G U60A,0.16
21,U43A G61C,0.36
22,U43A G61A,0.97
23,G42C U48A,0.13
24,G42A U58A,0.21

row,Variant,self-cleavage
1,G42A U58C,0.25
2,G42U A57G,0.19
3,G42U A47G,0.18
4,G42A U76C,0.41
5,G42A U76G,0.26
6,U41C U60G,0.42
7,U41C U60C,0.55
8,U41C U60A,0.68
9,U43A A47G,1.06
10,U43A A47U,0.63
11,U43A C79A,1.22
12,U43A G70U,0.54
13,G42U U80C,0.51
14,U43A A77U,1.23
15,U43A A77G,1.2
16,U43A A77C,1.18
17,U41G A45U,0.17
18,U41G A45G,0.25
19,U41G U80A,0.26
20,U41G U80C,0.29
21,U41G U54C,0.38
22,U41G U54G,0.23
23,G42C U60C,0.24
24,U43A A45G,0.75

row,Variant,self-cleavage
1,U43A A45C,0.39
2,U43A A45U,0.82
3,G42A A45G,0.3
4,G42A A45C,0.32
5,U43C A47C,0.06
6,U43C A47U,0.39
7,U43C A47G,0.58
8,G42A U69A,0.08
9,U41C G52C,1.12
10,U41C G52U,1.03
11,U41C G52A,1.18
12,U41C G55A,0.93
13,U41C G55U,1.17
14,U43C A64U,0.29
15,U43C A64G,0.51
16,U41G U67C,0.17
17,U41G U67A,0.2
18,U43A G52C,1.19
19,U43A G52U,1.26
20,U43A G52A,1.23
21,G42U A75G,0.19
22,U43A A56U,0.88
23,U43A A56G,0.97
24,U43A A56C,0.73

row,Variant,self-cleavage
1,U43C A56U,0.26
2,U43C A56C,0.18
3,U43C A56G,0.33
4,U43A U49G,0.52
5,U43A U49A,0.8
6,U43A U49C,0.53
7,U41C U58C,0.58
8,U41C U58G,0.41
9,U41C U58A,0.47
10,U41G U58A,0.33
11,U41G U58G,0.16
12,U41G U58C,0.18
13,G42U A64U,0.13
14,G42A C59G,0.23
15,U41C C79U,1.26
16,U41C C79A,1.21
17,U41C U43A,0.72
18,U41C U43C,0.46
19,U41G A64G,0.26
20,U41G A64U,0.14
21,U41G C44A,0.13
22,U41G G52C,0.14
23,G42A A75G,0.28
24,U43A U76C,1.14

row,Variant,self-cleavage
1,U43A U76A,1.23
2,G42C U49C,0.1
3,U43A U66C,0.53
4,U43A U66A,0.69
5,G42C U43C,0.14
6,G42C U43A,0.33
7,U43A C44U,1.11
8,U41C C50U,1.08
9,U41C C50A,0.94
10,U41C C50G,0.96
11,U41G U69A,0.36
12,U41G U69C,0.19
13,U41G U69G,0.22
14,U41C U76C,1.05
15,U41C U76G,1.05
16,U41C U76A,1.17
17,U41G A56U,0.25
18,U41G A56G,0.22
19,U41C G61A,0.34
20,U41C G61C,0.21
21,U41C G61U,0.62
22,G42U A77U,0.37
23,G42A U66C,0.38
24,U43A U69G,0.82

row,Variant,self-cleavage
1,U43A U69A,0.79
2,U43A U69C,0.72
3,U43A G63U,1.26
4,U43A G63A,1.13
5,U43A U72C,1.17
6,U43A U72A,0.71
7,U43A U72G,1.02
8,U43A U78A,1.29
9,U43A U78G,1.29
10,U43A U78C,1.13
11,U41C C62U,0.17
12,U41C C62A,0.19
13,U41C C62G,0.15
14,G42A U48C,0.33
15,G42A A64U,0.14
16,G42A A64G,0.21
17,G42A G70C,0.13
18,G42A G70A,0.19
19,G42A U60C,0.34
20,G42A U60A,0.3
21,U43A G73U,1.26
22,U43A G73A,1.28
23,U41G,0.29
24,U41C,1.09

row,Variant,self-cleavage
1,G42A U74C,0.64
2,U43A C50A,1.07
3,U43C A45U,0.3
4,U43C A45G,0.5
5,U43C A45C,0.3
6,U43A C59G,0.41
7,U41G U78A,0.26
8,U41G U78G,0.2
9,U41G U78C,0.21
10,U41C U54C,1.03
11,U41C U54G,0.88
12,U41C U54A,1.11
13,G42U U43A,0.54
14,G42U U43C,0.43
15,U41C A77U,1.17
16,U41C A77C,1.09
17,U41C A77G,1.17
18,U41G C81U,0.33
19,U41C A56C,0.64
20,U41C A56G,0.94
21,U41C A56U,0.75
22,U43A U67C,0.33
23,U43A U67A,0.83
24,G42A C79A,0.33

row,Variant,self-cleavage
1,G42A C79U,0.36
2,U41G U51A,0.37
3,U41G U51G,0.27
4,U41G U51C,0.21
5,U41G A65G,0.35
6,U41C A57G,1
7,U41C A57U,0.78
8,U41C A57C,0.58
9,G42A G63U,0.35
10,U41C A65U,0.48
11,U41C A65C,0.4
12,U41C A65G,0.53
13,G42A U51C,0.29
14,U41C U74C,1.23
15,U41C U74G,1.21
16,U41C U74A,1.22
17,U41G U72G,0.41
18,U41G U72A,0.14
19,U41G U72C,0.35
20,U41G A47G,0.37
21,G42U A56U,0.48
22,G42U A56G,0.49
23,U41C A64G,0.77
24,U41C A64U,0.4

row,Variant,self-cleavage
1,U41C A64C,0.46
2,U43A A75U,1.19
3,U43A A75C,1.36
4,U43A A75G,1.01
5,G42A C81U,0.4
6,G42A C81G,0.35
7,U41C A45C,0.53
8,U41C A45G,0.92
9,U41C A45U,0.68
10,G42A C44G,0.11
11,U41C U51G,0.81
12,U41C U51A,1.06
13,U41C U51C,1.08
14,G42U U69G,0.14
15,U41C C68U,1.09
16,U41C C68G,0.39
17,U41C U49C,0.5
18,U41C U49A,0.89
19,G42C U72C,0.21
20,U43A U80C,1.15
21,U43A U80A,1.22
22,U41G A77U,0.36
23,U41G A77G,0.2
24,G42A U72C,0.37

row,Variant,self-cleavage
1,G42A U72A,0.18
2,U41C C81A,1.19
3,U41C C81U,1.19
4,U41C U66C,0.49
5,U41C U66G,0.58
6,U41C U66A,0.62
7,U41G U74C,0.35
8,U41G U74A,0.37
9,U43A U74C,1.24
10,U43A U74A,1.35
11,G42U U49C,0.02
12,U41C G46U,0.34
13,U41C G46C,0.42
14,U41G U66C,0.2
15,U43A A65G,0.93
16,U43A A65U,0.57
17,G42A A77U,0.39
18,U41C G70U,0.5
19,U41C G70A,0.62
20,U43C A57G,0.3
21,U43C A57U,0.22
22,G42A A57U,0.18
23,G42A A57G,0.16
24,U41G U43C,0.33

row,Variant,self-cleavage
1,U41G U43A,0.28
2,G42A U67C,0.21
3,G42A U67A,0.14
4,U43A G53A,1.2
5,G42C U74C,0.3
6,U41C C44A,0.39
7,U41C C44U,0.53
8,G42A U78C,0.21
9,U41C U78C,1.06
10,U41C U78A,1.13
11,U41C U78G,1.23
12,U43A A57C,0.47
13,U43A A57G,1.05
14,U43A A57U,1.11
15,U43A G46U,0.45
16,U43A G46A,0.44
17,U41C U69C,0.57
18,U41C U69A,0.67
19,U41C U69G,0.79
20,U41C C71G,0.4
21,U41C C71U,0.76
22,U41C C71A,0.33
23,U41C U48A,0.6
24,U41C U48C,0.71

row,Variant,self-cleavage
1,U41C U48G,0.55
2,U41C U72A,0.79
3,U41C U72C,1.11
4,U41C U72G,0.92
5,U41C A47G,1
6,U41C A47C,0.46
7,U41C A47U,0.61
8,U43A U54A,1.25
9,U43A U54C,1.19
10,G42A U54C,0.57
11,G42A U54A,0.45
12,G42A U43C,0.29
13,G42A U43G,0.32
14,U43A U51G,1.15
15,U43A U51C,0.88
16,U43A U51A,0.97
17,U41G A75G,0.18
18,G42U U76C,0.93
19,G42U U66G,0.32
20,G42U U66A,0.26
21,G42U U66C,0.48
22,G42C A57G,0.25
23,U41G U49C,0.38
24,U43A U60C,0.54

row,Variant,self-cleavage
1,U43A U60A,0.53
2,G42A G55U,0.08
3,U43A A64U,0.51
4,U43A A64G,1.04
5,U41C G63A,0.89
6,U41C G63U,1.13
7,U41C G63C,1.06
8,U41G A57G,0.23
9,U41G A57C,0.11
10,U41A U78G,0.13
11,G42U U74C,0.35
12,U43A,1.17
13,U43C,0.67
14,U41C U80G,1.29
15,U41C U80A,1.15
16,U41C U80C,1.04
17,U41C C59A,0.27
18,U41C C59U,0.89
19,U43A C68U,1.15
20,U41G U48C,0.36
21,U43A G55A,0.77
22,G42A U80A,0.79
23,G42A U80C,0.36
24,U41C G53A,1.13

row,Variant,self-cleavage
1,U41C G53C,1.13
2,U41A U80C,0.32
3,U41A U80G,0.41
4,U41A U80A,0.28
5,G42U U60C,0.17
6,G42U U60A,0.21
7,G42A A56G,0.16
8,G42A A56U,0.28
9,U43A U48C,0.71
10,U43A U58C,0.67
11,U43A U58G,0.31
12,U43A U58A,0.72
13,U41C G73A,1.23
14,U41C G73C,1.25
15,U41C G73U,1.28
16,G42A A47G,0.42
17,U43A C71U,0.49
18,G42U U58A,0.11
19,G42A G53C,0.29
20,U41C U67C,0.33
21,U41C U67G,0.3
22,U41C U67A,0.53
